The data set deals with the molecule itself. In words: negative-stain electron microscopy with image classification; aliquots every 3 h from the oscillating KaiA/KaiB/KaiC mixture (50 ng/ul KaiA, 50 ng/ul KaiB, 200 ng/ul KaiC, 1 mM ATP, 30 °C); 0.75% uranyl formate; particles sorted into four meta classes at seven phases.

Results on one protein are retold here after article PMC1831719, “Elucidating the Ticking of an In Vitro Circadian Clockwork” (PLoS Biology, 2007).

B1: KaiC (natural protein, S. elongatus, UniProt Q79PF4 1-519, looked up)
chain: MTSAEMTSPNNNSEHQAIAKMRTMIEGFDDISHGGLPIGRSTLVSGTSGTGKTLFSIQFLYNGIIEFDEPGVFVTFEETPQDIIKNARSFGWDLAKLVDEGKLFILDASPDPEGQEVVGGFDLSALIERINYAIQKYRARRVSIDSVTSVFQQYDASSVVRRELFRLVARLKQIGATTVMTTERIEEYGPIARYGVEEFVSDNVVILRNVLEGERRRRTLEILKLRGTSHMKGEYPFTITDHGINIFPLGAMRLTQRSSNVRVSSGVVRLDEMCGGGFFKDSIILATGATGTGKTLLVSRFVENACANKERAILFAYEESRAQLLRNAYSWGMDFEEMERQNLLKIVCAYPESAGLEDHLQIIKSEINDFKPARIAIDSLSALARGVSNNAFRQFVIGVTGYAKQEEITGLFTNTSDQFMGAHSITDSHISTITDTIILLQYVEIRGEMSRAINVFKMRGSWHDKAIREFMISDKGPDIKDSFRNFERIISGSPTRITVDEKSELSRIVRGVQEKGPES
notes: KaiC, circadian clock protein of Synechococcus elongatus; In the cycling reaction KaiC oscillates between hypo- and hyperphosphorylated forms (sites T426, S431, T432); also called KaiC hexamer; P-KaiC; source: E. coli, purified
In the case of B1, the “stoichiometry N” value was found to be 6.
